Data taken from patent publication US20130302353A1 (published 2013).

T1: VSREGQGRQ (SEQ ID NO:38) motif (human)
T1 construct: the peptides on the cards were longer and mostly CLIPS-constrained; also called core region EGQ
T1 peptide: VSREGQGRQ

T2: FLAG-hAPRIL captured by BCMA-Fc (human, UniProt O75888 110-250; Q02223 1-54, limits assumed)
T2 construct: also called APRIL-BCMA complex; receptor-ligand complex; not shown: FLAG tag; Fc of human IgG1
T2 sequence (looked up) 1: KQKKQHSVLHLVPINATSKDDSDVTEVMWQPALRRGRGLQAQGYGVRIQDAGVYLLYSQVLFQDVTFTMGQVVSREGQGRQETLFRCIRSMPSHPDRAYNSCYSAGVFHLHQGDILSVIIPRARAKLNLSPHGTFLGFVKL
T2 sequence (looked up) 2: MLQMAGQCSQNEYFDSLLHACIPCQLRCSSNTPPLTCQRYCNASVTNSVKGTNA

T3: IRSMPSHPDRA (SEQ ID NO:33) (human)
T3 construct: the peptides on the cards were longer and mostly CLIPS-constrained
T3 peptide: IRSMPSHPDRA


How the values were obtained:
[1] = target: T1, VSREGQGRQ (SEQ ID NO:38) motif; experiment: Pepscan ELISA on linear and CLIPS peptides
Method: (§1) The synthetic linear and CLIPS peptides were synthesized and screened using credit-card format mini PEPSCAN cards (455-well plate with 3 ul wells) as described by Slootstra et al. (Slootstra et al., 1996, Mol. Diversity. 1, 87-96) and Timmerman et al. (Timmerman et al., 2007, J. Mol. Recognit. 20, 283-299). The binding of antibodies (hAPRIL.01A and hAPRIL.03A) to each peptide was tested in a PEPSCAN-based enzyme-linked immuno assay (ELISA). The 455-well creditcard-format polypropylene cards, containing the covalently linked peptides, were incubated with sample (for example 1 ug/ml antibody diluted in a PBS solution containing 5% horse serum (vol/vol) and 5% ovalbumin (weight/vol)) and 1% Tween 80 (4° C., overnight). After washing the peptides were incubated with an anti-antibody peroxidase (dilution 1/1000, for example rabbit anti-mouse peroxidase, Southern Biotech) (1 hour, 25° C.), and subsequently, after washing the peroxidase substrate 2,2′-azino-di-3-ethylbenzthiazoline sulfonate (ABTS) and […] 3% H2O2 were added. After 1 hour the color development was measured. The color development of the ELISA was quantified with a CCD-camera and an image processing system. […]
(§2) Each antibody was tested on all 4225 peptides and their binding values were ranked. […] For hAPRIL.01A it was determined that it binds to […] […]

[2] = target: T2, FLAG-hAPRIL captured by BCMA-Fc; experiment: ELISA, FLAG-hAPRIL captured by coated BCMA-Fc
Method: Protein-based ELISA experiments using purified hAPRIL.01A and hAPRIL.03A antibodies were performed to determine apparent binding affinities (reported as EC₅₀ values). Binding was compared to mouse anti-hAPRIL IgG1 Aprily-5 (Alexis). Maxisorp 96-well immunoplates (Nunc) were coated with either rabbit anti-FLAG polyclonal antibody (Sigma) or BCMA-Fc (R&D Systems) at 50 ng/well in PBS overnight at 4° C. and blocked with 10% Goat serum/PBST for 1 hour at RT. Plates were washed with PBST 3 times and incubated with supernatant (1:4 in PBS) containing FLAG-hAPRIL for 1 hour at RT. Plates were again washed with PBST 3 times and incubated with hAPRIL.01A, hAPRIL.03A, and Aprily-5 antibodies (10 μg/ml high test with 10-fold dilutions in triplicates) for 1 h at RT. After three washes with PBST, bound antibodies were detected with goat anti-mouse IgG-HRP (1:2,000) (Southern Biotechnology) for 1 hour at RT. Plate was washed three times with PBST, and APRIL-reactivity was visualized with OptiEIA TMB substrate (Becton Dickinson). The concentration for half-maximal binding is reported as a measure of relative binding affinity. When FLAG-hAPRIL was captured by the anti-FLAG antibody (FIG. 2A), EC₅₀ values for hAPRIL.01A, hAPRIL.03A and Aprily-5 were calculated as 2.2, 1.4, and 1.7 nM, respectively. […] In contrast, binding of hAPRIL.03A to the APRIL-BCMA complex was observed.

[3] = target: T3, IRSMPSHPDRA (SEQ ID NO:33); experiment: Pepscan ELISA on linear and CLIPS peptides
Method: as §1, §2

binding result [1]	binding result [2]	binding result [3]	Binder
binds			hAPRIL.03A (antibody, IgG1, V domains shown, Mouse antibody from a hybridoma; also called hAPRIL.03A hybridoma supernatant; purified hAPRIL.03A) VH: QVTLKESGPGILQPSQTLSLTCSFSGFSLSTYGIGVGWIRQPSGKGLEWLAHIWWNDNKYYNTALKSRLTISKDTSNNQVFLKIASVDTADTATYYCARIAGGNYDYAMDHWGQGTSVTVSS VL: QIVLTQSPAIMSTSPGEKVTLTCSASSSVSSTYLYWYQQKPGSSPKLWIYSTSNLASGVPARFSGSGSGTSYSLTISSMEAEDAASYFCHQWSSYPPTFGAGTKLELK
	no binding (tested: 10 µg/ml high test)	binds	hAPRIL.01A (antibody, IgG1, V domains shown, Mouse antibody from a hybridoma; also called hAPRIL.01A hybridoma supernatant; purified hAPRIL.01A) VH: EVQLQQSGPELVKPGASVKMSCKASGYTFTSYVMHWVKQKPGQGLEWIGYINPYNDAPKYNEKFKGKATVTSDKSSGTAYMELSSLTSEDSAVYYCARGLGYALYYAMDYWGQGTSVTVSS VL: DIVMTQSQKFKSTSVGDRVSVTCKASQNVGNNVAWYQQKAGQSPKALISSASNRDSGVPDRFTGSGSGTDFTLTISNVQSEDLADYFCQQYNIYPFTFGSGTELEIK
